Starred links: 1 amine or outer side, 2 acyl side, 3 side chain; linkers in the order of their positions; H or OH if unused. Positions of bridges follow the written chain, without caps; N, C: chain ends. Groups on a side chain read outwards from the residue. No end group written: not given here. *: point of attachment. C20 diacid = O=C(O)CCCCCCCCCCCCCCCCCCC(=O)*; γGlu = O=C(O)[C@H](CCC(=O)[*:2])N[*:1]; AEEA = NCCOCCOCC(=O)O
T1: human amylin 3(a) receptor (human calcitonin receptor + RAMP-3) (human, UniProt P30988 25-474; O60896 24-148)
T1 sequence (looked up) 1: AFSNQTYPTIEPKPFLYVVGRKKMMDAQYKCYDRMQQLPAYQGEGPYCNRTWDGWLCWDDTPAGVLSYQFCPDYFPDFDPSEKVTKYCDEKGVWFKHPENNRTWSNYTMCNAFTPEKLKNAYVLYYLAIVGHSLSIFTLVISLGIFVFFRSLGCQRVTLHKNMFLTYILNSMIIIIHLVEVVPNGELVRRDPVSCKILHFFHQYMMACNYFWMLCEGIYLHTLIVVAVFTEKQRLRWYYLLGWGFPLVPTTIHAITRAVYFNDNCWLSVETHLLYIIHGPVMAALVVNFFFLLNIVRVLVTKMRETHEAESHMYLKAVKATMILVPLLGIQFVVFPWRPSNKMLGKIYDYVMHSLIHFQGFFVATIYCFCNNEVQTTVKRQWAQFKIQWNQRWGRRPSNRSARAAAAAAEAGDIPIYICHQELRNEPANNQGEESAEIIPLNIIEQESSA
T1 sequence (looked up) 2: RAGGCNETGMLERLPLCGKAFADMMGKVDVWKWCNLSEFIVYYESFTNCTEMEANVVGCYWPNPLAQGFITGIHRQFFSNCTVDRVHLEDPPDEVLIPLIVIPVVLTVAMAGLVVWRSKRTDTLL

T2: human calcitonin (a) receptor (human, UniProt P30988 25-474)
T2 sequence (looked up): T1 sequence (looked up) 1

B1: N-alpha-[(S)-4-Carboxy-4-(19-carboxynonadecanoylamino)butyryl]-[Lys11,Glu14,His17,Pro37]-pramlintide (peptide)
peptide: {C20 diacid-γGlu}-KCNTATCATQKLAEFLHHSSNNFGPILPPTNVGSNTP-NH2
modifications: disulfide 2-7
SMILES: CC[C@H](C)[C@H](NC(=O)[C@@H]1CCCN1C(=O)CNC(=O)[C@H](Cc1ccccc1)NC(=O)[C@H](CC(N)=O)NC(=O)[C@H](CC(N)=O)NC(=O)[C@H](CO)NC(=O)[C@H](CO)NC(=O)[C@H](Cc1c[nH]cn1)NC(=O)[C@H](Cc1c[nH]cn1)NC(=O)[C@H](CC(C)C)NC(=O)[C@H](Cc1ccccc1)NC(=O)[C@H](CCC(=O)O)NC(=O)[C@H](C)NC(=O)[C@H](CC(C)C)NC(=O)[C@H](CCCCN)NC(=O)[C@H](CCC(N)=O)NC(=O)[C@@H](NC(=O)[C@H](C)NC(=O)[C@@H]1CSSC[C@H](NC(=O)[C@H](CCCCN)NC(=O)CC[C@H](NC(=O)CCCCCCCCCCCCCCCCCCC(=O)O)C(=O)O)C(=O)N[C@@H](CC(N)=O)C(=O)N[C@@H]([C@@H](C)O)C(=O)N[C@@H](C)C(=O)N[C@@H]([C@@H](C)O)C(=O)N1)[C@@H](C)O)C(=O)N[C@@H](CC(C)C)C(=O)N1CCC[C@H]1C(=O)N1CCC[C@H]1C(=O)N[C@H](C(=O)N[C@@H](CC(N)=O)C(=O)N[C@H](C(=O)NCC(=O)N[C@@H](CO)C(=O)N[C@@H](CC(N)=O)C(=O)N[C@H](C(=O)N1CCC[C@H]1C(N)=O)[C@@H](C)O)C(C)C)[C@@H](C)O
B2: N-epsilon1-[(S)-4-Carboxy-4-(19-carboxynonadecanoylamino)butyryl]-[Glu14,His17,Gln21,Ala25,Pro26,Ser28,Ser29,Pro37]-pramlintide (peptide)
peptide: K([γGlu-C20 diacid])CNTATCATQRLAEFLHHSSQNFGAPLSSTNVGSNTP-NH2
modifications: disulfide 2-7; N-terminus assumed
SMILES: CC(C)C[C@H](NC(=O)[C@H](CCCNC(=N)N)NC(=O)[C@H](CCC(N)=O)NC(=O)[C@@H](NC(=O)[C@H](C)NC(=O)[C@@H]1CSSC[C@H](NC(=O)[C@@H](N)CCCCNC(=O)CC[C@H](NC(=O)CCCCCCCCCCCCCCCCCCC(=O)O)C(=O)O)C(=O)N[C@@H](CC(N)=O)C(=O)N[C@@H]([C@@H](C)O)C(=O)N[C@@H](C)C(=O)N[C@@H]([C@@H](C)O)C(=O)N1)[C@@H](C)O)C(=O)N[C@@H](C)C(=O)N[C@@H](CCC(=O)O)C(=O)N[C@@H](Cc1ccccc1)C(=O)N[C@@H](CC(C)C)C(=O)N[C@@H](Cc1c[nH]cn1)C(=O)N[C@@H](Cc1c[nH]cn1)C(=O)N[C@@H](CO)C(=O)N[C@@H](CO)C(=O)N[C@@H](CCC(N)=O)C(=O)N[C@@H](CC(N)=O)C(=O)N[C@@H](Cc1ccccc1)C(=O)NCC(=O)N[C@@H](C)C(=O)N1CCC[C@H]1C(=O)N[C@@H](CC(C)C)C(=O)N[C@@H](CO)C(=O)N[C@@H](CO)C(=O)N[C@H](C(=O)N[C@@H](CC(N)=O)C(=O)N[C@H](C(=O)NCC(=O)N[C@@H](CO)C(=O)N[C@@H](CC(N)=O)C(=O)N[C@H](C(=O)N1CCC[C@H]1C(N)=O)[C@@H](C)O)C(C)C)[C@@H](C)O
B3: N-alpha-[(S)-4-Carboxy-4-(19-carboxynonadecanoylamino)butyryl]-[Glu14,His17,Thr21,Pro37]-pramlintide (peptide)
peptide: {C20 diacid-γGlu}-KCNTATCATQRLAEFLHHSSTNFGPILPPTNVGSNTP-NH2
modifications: disulfide 2-7
SMILES: CC[C@H](C)[C@H](NC(=O)[C@@H]1CCCN1C(=O)CNC(=O)[C@H](Cc1ccccc1)NC(=O)[C@H](CC(N)=O)NC(=O)[C@@H](NC(=O)[C@H](CO)NC(=O)[C@H](CO)NC(=O)[C@H](Cc1c[nH]cn1)NC(=O)[C@H](Cc1c[nH]cn1)NC(=O)[C@H](CC(C)C)NC(=O)[C@H](Cc1ccccc1)NC(=O)[C@H](CCC(=O)O)NC(=O)[C@H](C)NC(=O)[C@H](CC(C)C)NC(=O)[C@H](CCCNC(=N)N)NC(=O)[C@H](CCC(N)=O)NC(=O)[C@@H](NC(=O)[C@H](C)NC(=O)[C@@H]1CSSC[C@H](NC(=O)[C@H](CCCCN)NC(=O)CC[C@H](NC(=O)CCCCCCCCCCCCCCCCCCC(=O)O)C(=O)O)C(=O)N[C@@H](CC(N)=O)C(=O)N[C@@H]([C@@H](C)O)C(=O)N[C@@H](C)C(=O)N[C@@H]([C@@H](C)O)C(=O)N1)[C@@H](C)O)[C@@H](C)O)C(=O)N[C@@H](CC(C)C)C(=O)N1CCC[C@H]1C(=O)N1CCC[C@H]1C(=O)N[C@H](C(=O)N[C@@H](CC(N)=O)C(=O)N[C@H](C(=O)NCC(=O)N[C@@H](CO)C(=O)N[C@@H](CC(N)=O)C(=O)N[C@H](C(=O)N1CCC[C@H]1C(N)=O)[C@@H](C)O)C(C)C)[C@@H](C)O
B4: N-alpha-[(S)-4-Carboxy-4-(19-carboxynonadecanoylamino)butyryl]-[Arg14,Arg17,Pro37]-pramlintide (peptide)
peptide: {C20 diacid-γGlu}-KCNTATCATQRLARFLRHSSNNFGPILPPTNVGSNTP-NH2
modifications: disulfide 2-7
SMILES: CC[C@H](C)[C@H](NC(=O)[C@@H]1CCCN1C(=O)CNC(=O)[C@H](Cc1ccccc1)NC(=O)[C@H](CC(N)=O)NC(=O)[C@H](CC(N)=O)NC(=O)[C@H](CO)NC(=O)[C@H](CO)NC(=O)[C@H](Cc1c[nH]cn1)NC(=O)[C@H](CCCNC(=N)N)NC(=O)[C@H](CC(C)C)NC(=O)[C@H](Cc1ccccc1)NC(=O)[C@H](CCCNC(=N)N)NC(=O)[C@H](C)NC(=O)[C@H](CC(C)C)NC(=O)[C@H](CCCNC(=N)N)NC(=O)[C@H](CCC(N)=O)NC(=O)[C@@H](NC(=O)[C@H](C)NC(=O)[C@@H]1CSSC[C@H](NC(=O)[C@H](CCCCN)NC(=O)CC[C@H](NC(=O)CCCCCCCCCCCCCCCCCCC(=O)O)C(=O)O)C(=O)N[C@@H](CC(N)=O)C(=O)N[C@@H]([C@@H](C)O)C(=O)N[C@@H](C)C(=O)N[C@@H]([C@@H](C)O)C(=O)N1)[C@@H](C)O)C(=O)N[C@@H](CC(C)C)C(=O)N1CCC[C@H]1C(=O)N1CCC[C@H]1C(=O)N[C@H](C(=O)N[C@@H](CC(N)=O)C(=O)N[C@H](C(=O)NCC(=O)N[C@@H](CO)C(=O)N[C@@H](CC(N)=O)C(=O)N[C@H](C(=O)N1CCC[C@H]1C(N)=O)[C@@H](C)O)C(C)C)[C@@H](C)O
B5: N-alpha-[(S)-4-Carboxy-4-(19-carboxynonadecanoylamino)butyryl]-Gly-[Arg1,Glu14,Arg17,Pro37]-pramlintide (peptide)
peptide: {C20 diacid-γGlu}-GRCNTATCATQRLAEFLRHSSNNFGPILPPTNVGSNTP-NH2
modifications: disulfide 3-8
SMILES: CC[C@H](C)[C@H](NC(=O)[C@@H]1CCCN1C(=O)CNC(=O)[C@H](Cc1ccccc1)NC(=O)[C@H](CC(N)=O)NC(=O)[C@H](CC(N)=O)NC(=O)[C@H](CO)NC(=O)[C@H](CO)NC(=O)[C@H](Cc1c[nH]cn1)NC(=O)[C@H](CCCNC(=N)N)NC(=O)[C@H](CC(C)C)NC(=O)[C@H](Cc1ccccc1)NC(=O)[C@H](CCC(=O)O)NC(=O)[C@H](C)NC(=O)[C@H](CC(C)C)NC(=O)[C@H](CCCNC(=N)N)NC(=O)[C@H](CCC(N)=O)NC(=O)[C@@H](NC(=O)[C@H](C)NC(=O)[C@@H]1CSSC[C@H](NC(=O)[C@H](CCCNC(=N)N)NC(=O)CNC(=O)CC[C@H](NC(=O)CCCCCCCCCCCCCCCCCCC(=O)O)C(=O)O)C(=O)N[C@@H](CC(N)=O)C(=O)N[C@@H]([C@@H](C)O)C(=O)N[C@@H](C)C(=O)N[C@@H]([C@@H](C)O)C(=O)N1)[C@@H](C)O)C(=O)N[C@@H](CC(C)C)C(=O)N1CCC[C@H]1C(=O)N1CCC[C@H]1C(=O)N[C@H](C(=O)N[C@@H](CC(N)=O)C(=O)N[C@H](C(=O)NCC(=O)N[C@@H](CO)C(=O)N[C@@H](CC(N)=O)C(=O)N[C@H](C(=O)N1CCC[C@H]1C(N)=O)[C@@H](C)O)C(C)C)[C@@H](C)O

Molecular target: T1, human amylin 3(a) receptor (human …)
Experiment: cell-based or functional assay

| Amylin receptor human EC50 [nM] | Binder |
| --- | --- |
| 0.0805 | B1 |
| 0.209 | B2 |
| 0.625 | KCNTATCATQRLAEFLHHSSK([AEEA-AEEA-γGlu-19‑carboxyheptadecanoyl])NFGPILSPTNVGSHTY-NH2 (disulfide 2-7) |
| 0.54 | KCNTATCATQRLAEFLVHSSK([AEEA-AEEA-γGlu-19‑carboxyheptadecanoyl])NFGPILSRTNVGSHTY-NH2 (disulfide 2-7) |
| 1.03 | KCNTATCATQRLAEFLHHSSK([AEEA-AEEA-γGlu-19‑carboxyheptadecanoyl])NFGPILSSTNVGSHTY-NH2 (disulfide 2-7) |
| 0.091 | B3 |
| 0.129 | B4 |
| 0.344 | KCNTATCATQRLAEFLVRSSK([AEEA-AEEA-γGlu-19‑carboxyheptadecanoyl])NFGPILSRTNVGSRTY-NH2 (disulfide 2-7) |
| 0.043 | B5 |

Molecular target: T2, human calcitonin (a) receptor
Experiment: cell-based or functional assay

| CTa receptor human EC50 [nM] | Binder |
| --- | --- |
| 0.083 | B1 |
| 0.0675 | B2 |
| 0.347 | KCNTATCATQRLAEFLHHSSK([AEEA-AEEA-γGlu-19‑carboxyheptadecanoyl])NFGPILSPTNVGSHTY-NH2 (disulfide 2-7) |
| 0.229 | KCNTATCATQRLAEFLVHSSK([AEEA-AEEA-γGlu-19‑carboxyheptadecanoyl])NFGPILSRTNVGSHTY-NH2 (disulfide 2-7) |
| 0.319 | KCNTATCATQRLAEFLHHSSK([AEEA-AEEA-γGlu-19‑carboxyheptadecanoyl])NFGPILSSTNVGSHTY-NH2 (disulfide 2-7) |
| 0.0595 | B3 |
| 0.453 | B4 |
| 0.732 | KCNTATCATQRLAEFLVRSSK([AEEA-AEEA-γGlu-19‑carboxyheptadecanoyl])NFGPILSRTNVGSRTY-NH2 (disulfide 2-7) |
| 0.041 | B5 |

— US20130005646A1 (Novo Nordisk, published 2013)
